Data published in publication PMC6547681, “Structures of BCL-2 in complex with venetoclax reveal the molecular basis of resistance mutations” (Nature Communications, 2019).

Experiments:
BAXBH3 peptide = assay: SPR; direct binding; biotinylated BIMBH3 or BAXBH3 peptide immobilised on SA sensor chip, BCL-2 (0-63 nM) as analyte; HBS-EP (10 mM hepes pH 7.4, 150 mM sodium chloride, 3.4 mM EDTA, 0.005% tween 20, optionally 1 mM TCEP for BAXBH3), 25 °C; BIAcore 4000 or S200; 1:1 binding site kinetic model; BIMBH3-4A reference surface
BIMBH3 peptide = assay: as above
venetoclax = assay: steady-state competition SPR; conditions: BIMBH3 peptide immobilised on chip; BCL-2 analyte pre-combined with venetoclax at 0, 20, 40, 60 nM
S55746 = assay: steady-state competition SPR; conditions: BIMBH3 peptide immobilised on chip; BCL-2 analyte pre-combined with S55746 at 0, 20, 40, 60 nM

Chain of BIMBH3 peptide (O43521 141-166): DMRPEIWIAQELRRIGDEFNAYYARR
Chain of BAXBH3 peptide (Q07812 other isoform, or with tags, fused parts or gaps): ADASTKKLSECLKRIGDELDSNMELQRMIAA

Row | Substance | Kd (BAXBH3 peptide) [pM] | Kd (BIMBH3 peptide) [pM] | Ki (venetoclax) [pM] | Ki (S55746) [pM]
1 | BCL-2 G101A (from UniProt P10415 1-239) (natural protein) |  | 230 |  | 
2 | BCL-2 G101V/E152A double mutant (from UniProt P10415 1-239) (natural protein) | 5500 | 630 |  | 
3 | BCL-2 WT (from UniProt P10415) E152A |  |  | 27 | 
4 | BCL-2 WT (from UniProt P10415) G101V; E152A |  |  | 2 | 5300

Results, then the substance that gave them:

Row | Kd (BAXBH3 peptide) [pM] | Kd (BIMBH3 peptide) [pM] | Ki (venetoclax) [pM] | Ki (S55746) [pM] | Substance
5 | 3600 | 360 |  |  | BCL-2 E152A (from UniProt P10415 1-239) (natural protein)
6 | 4000 | 170 |  |  | BCL-2 F104C (from UniProt P10415 1-239) (natural protein)
7 |  |  | 25100 |  | BCL-2 WT (from UniProt P10415) F104C
8 |  |  | 110 |  | BCL-2 WT (from UniProt P10415) G101A
9 |  |  |  | 36000 | BCL-2 WT (from UniProt P10415) G101V
